Laboratory results as given in patent US20200199231A1 (Genmab, published 2020).

T1: human CD20 (human, UniProt P11836 1-297)
T1 construct: whole, on cells; On Daudi and other human B cell lines, on human B cells in blood, or transiently expressed in HEK293F cells (construct pEE12.4CD20HS-GA); also called wild type CD20; WT CD20
T1 sequence (looked up): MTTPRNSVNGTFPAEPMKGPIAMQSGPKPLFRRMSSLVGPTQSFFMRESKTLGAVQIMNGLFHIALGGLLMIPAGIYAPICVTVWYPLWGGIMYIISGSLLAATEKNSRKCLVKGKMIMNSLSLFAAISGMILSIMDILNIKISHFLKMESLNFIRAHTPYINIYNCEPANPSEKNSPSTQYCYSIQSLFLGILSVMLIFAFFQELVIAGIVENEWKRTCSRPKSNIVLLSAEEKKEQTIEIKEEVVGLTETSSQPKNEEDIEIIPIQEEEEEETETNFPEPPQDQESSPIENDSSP

T2: CD20 KDD mutant (human, UniProt P11836 1-297)
T2 construct: whole, on cells; Transiently expressed in HEK293F cells; also called T159K/N163D/N166D
T2 sequence (looked up): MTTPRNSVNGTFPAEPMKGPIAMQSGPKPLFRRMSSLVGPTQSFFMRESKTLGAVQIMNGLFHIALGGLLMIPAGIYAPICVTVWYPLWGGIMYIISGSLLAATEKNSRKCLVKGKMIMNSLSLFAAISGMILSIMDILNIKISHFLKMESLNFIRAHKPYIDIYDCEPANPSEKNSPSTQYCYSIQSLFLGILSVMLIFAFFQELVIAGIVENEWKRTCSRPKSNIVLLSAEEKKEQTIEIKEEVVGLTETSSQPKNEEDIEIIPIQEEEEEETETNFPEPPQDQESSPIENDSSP

T3: CD20-AxP (human, UniProt P11836 1-297)
T3 construct: whole, on cells; Transiently expressed in HEK293F cells; also called AxP mutant; CD20 mutant (CD20-AxP)
T3 sequence (looked up): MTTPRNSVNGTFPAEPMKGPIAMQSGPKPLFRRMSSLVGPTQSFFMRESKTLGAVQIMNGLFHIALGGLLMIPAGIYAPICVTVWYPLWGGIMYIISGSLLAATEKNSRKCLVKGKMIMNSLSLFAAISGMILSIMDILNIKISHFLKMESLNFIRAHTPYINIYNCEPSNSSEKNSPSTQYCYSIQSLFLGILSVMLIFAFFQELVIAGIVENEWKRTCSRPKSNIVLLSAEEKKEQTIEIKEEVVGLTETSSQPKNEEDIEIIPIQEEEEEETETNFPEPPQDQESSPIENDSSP


Legend:
[1] = target: T1, human CD20; assay: flow cytometry on Daudi cells (CD20-positive, CD3-negative); PE-conjugated goat anti-human IgG F(ab')2; median FI (PE)
Experimental: (§1) In addition to the non-activating mutations, L234F, L235E, D265A, on both arms, the bispecific antibody contained an F405L mutation on one arm and a K409R mutation on the other arm.
(§2) Cells (1×10⁵ cells/well) were incubated in polystyrene 96-well round-bottom plates (Greiner bio-one, cat. no. 650101) with serial dilutions of antibodies (range 0.041 to 30 μg/mL in 3-fold dilution steps [A-E] and 0.00061 to 10 μg/mL in 4-fold dilution steps [F-I]) in 100 μL PBS/0.1% BSA/0.02% azide (from here designated as staining buffer) at 4° C. for 30 min.
(§3) After washing twice in staining buffer, cells were incubated in 50 μL secondary antibody at 4° C. for 30 min. As a secondary antibody, R-Phycoerythrin (PE)-conjugated goat-anti-human IgG F(ab′)₂ (cat. no. 109-116-098, Jackson ImmunoResearch Laboratories, Inc., West Grove, Pa.) diluted 1:200 in staining buffer, was used for all experiments. Next, cells were washed twice in staining buffer, re-suspended in 30 μL staining buffer and analyzed on an iQue screener (Intellicyt Corporation, USA) (for FIG. 1A-E) or re-suspended in 100 μL staining buffer and analyzed on a FACSCANTOII (BD Biosciences) (FIG. 1F-I). Binding curves were analyzed using non-linear regression (sigmoidal dose-response with variable slope) using GraphPad Prism V75.04 software (GraphPad Software, San Diego, Calif., USA).

[2] = target: T2, CD20 KDD mutant; assay: flow cytometry, HEK293F cells expressing CD20 KDD mutant
Experimental: (§4) PCR was performed on a Tgradient Thermocycler 96 (Biometra) using a 35 cycle program of: +95° C. for 15 min, followed by 35 cycles of: +94° C. for 30 sec, anneal: 55° C. for 30 sec and extension: +72° C. for 2 min, followed by a final extension step at 72° C. for 10 min and subsequent storage at 4° C. The completed reactions were analyzed by agarose gel electrophoresis. See Table 11 for details of primer pairs used for colony PCR. DNA sequencing: Plasmid DNA samples were send to AGOWA (Berlin, Germany) for sequence analysis. Sequences were analyzed using the VectorNTI software package (Informax, Frederick, Md., USA).
(§5) Mutagenesis: The mutagenesis was performed, using the QuikChange® XL Site-Directed Mutagenesis kit (Cat 200517-5, Lot 1120630, Stratagene Europe) according to the manufacturer's instructions. Mutagenesis reactions were concentrated using ethanol precipitation and transformed into either oneshot DH5α-TIR competent E. coli cells or electroporated into ElectroTen-Blue® Electroporation-Competent Cells. Colonies were checked by colony PCR and restriction digestion prior to transfection. […] Anti-CD20 Antibody binding: HEK293F cells were taken up in staining buffer (PBS supplemented with 0.1% BSA and 0.02% NaN₃) and added to round bottom plates (1-3×10⁵/well in 100 μL). […] After washing twice in staining buffer, cells were incubated in 50 μL secondary antibody at 4° C. for 30 min. As a secondary antibody, R-Phycoerythrin (PE)-conjugated goat-anti-human IgG F(ab′)₂ was used, as described supra. Next, cells were washed once in staining buffer, re-suspended in 150 μL staining buffer and analyzed on a flow cytometer (FACSCanto-720, Becton Dickinson, San Diego, Calif., USA) and 10,000 events per sample were acquired at high flow rate. Binding curves were analyzed using non-linear regression (sigmoidal dose-response with variable slope) using GraphPad Prism V75.04 software (GraphPad Software, San Diego, Calif., USA).

[3] = target: T1, human CD20; assay: flow cytometry on HEK293F cells transiently expressing wild type CD20; PE-conjugated goat anti-human IgG F(ab')2; MFI
Experimental: as §4, §5

[4] = target: T3, CD20-AxP; assay: flow cytometry, HEK293F transfectants, MFI mutant/MFI wt at 10 µg/mL
Experimental: (§6) As a secondary antibody, R-Phycoerythrin (PE)-conjugated goat-anti-human IgG F(ab′)₂ was used, as described supra. Next, cells were washed once in staining buffer, re-suspended in 150 μL staining buffer and analyzed on a flow cytometer (FACSCanto-720, Becton Dickinson, San Diego, Calif., USA) and 10,000 events per sample were acquired at high flow rate. Binding curves were analyzed using non-linear regression (sigmoidal dose-response with variable slope) using GraphPad Prism V75.04 software (GraphPad Software, San Diego, Calif., USA).
(§7) Numbers indicate the percentage of binding to the CD20 mutants, relative to binding to wild type CD20, at 10 μg/mL. The percentage of binding was calculated by the following formula: (MFI binding to CD20 mutant)/(MFI binding CD20 wt) × 100%

[5] = target: T2, CD20 KDD mutant; assay: as above
Experimental: as §6, §7

[6] = target: T3, CD20-AxP; assay: flow cytometry on HEK293F cells transiently expressing CD20-AxP (A170S/P172S); PE-conjugated goat anti-human IgG F(ab')2; MFI
Experimental: as §4, §5

[7] = target: T4, human CD3 (human, UniProt P07766 22-207); assay: flow cytometry on Jurkat cells (CD3-positive, CD20-negative); PE-conjugated goat anti-human IgG F(ab')2; median FI (PE)
T4 construct: CD3 as part of the TCR complex on Jurkat cells or human T cells; also called human CD3ε (epsilon)
Experimental: as §1, §2, §3

T4 sequence (P07766 22-207 limits assumed): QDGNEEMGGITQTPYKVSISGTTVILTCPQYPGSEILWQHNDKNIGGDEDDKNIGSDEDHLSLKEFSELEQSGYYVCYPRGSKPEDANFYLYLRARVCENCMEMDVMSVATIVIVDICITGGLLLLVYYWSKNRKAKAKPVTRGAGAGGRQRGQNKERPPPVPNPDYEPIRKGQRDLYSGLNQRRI

Row | EC50 (read off the curve) [1] [µg/mL] | binding result [2] | EC50 (read off the curve) [3] [µg/mL] | % of wt CD20 binding [4] [%] | % of wt CD20 binding [5] [%] | EC50 (read off the curve) [6] [µg/mL] | EC50 (read off the curve) [7] [µg/mL] | Binder
1 | ~0.8 | no binding (tested: 0.0015-10 µg/mL) | ~0.1 | 113 | 3 | ~0.2 | ~0.1 | bsIgG1-huCLB-T3/4-FEALxCD20-7D8-FEAR (bispecific antibody, also called huCLB-T3/4x7D8; bsIgG1-huCLB-3/4-FEALxCD20-7D8-FEAR) heavy 1: EVQLVESGGGLVKPGGSLRLSCAASGFTFSSYGMFWVRQAPGKGLEWVATISRYSRYIYYPDSVKGRFTISRDNAKNSLYLQMNSLRAEDTAVYYCARRPLYGSSPDYWGQGTLVTVSSASTKGPSVFPLAPSSKSTSGGTAALGCLVKDYFPEPVTVSWNSGALTSGVHTFPAVLQSSGLYSLSSVVTVPSSSLGTQTYICNVNHKPSNTKVDKRVEPKSCDKTHTCPPCPAPEFEGGPSVFLFPPKPKDTLMISRTPEVTCVVVAVSHEDPEVKFNWYVDGVEVHNAKTKPREEQYNSTYRVVSVLTVLHQDWLNGKEYKCKVSNKALPAPIEKTISKAKGQPREPQVYTLPPSREEMTKNQVSLTCLVKGFYPSDIAVEWESNGQPENNYKTTPPVLDSDGSFLLYSKLTVDKSRWQQGNVFSCSVMHEALHNHYTQKSLSLSPGK VL 1: EIVLTQSPATLSLSPGERATLSCSASSSVTYVHWYQQKPGQAPRLLIYDTSKLASGIPARFSGSGSGTDFTLTISSLEPEDFAVYYCFQGSGYPLTFGSGTKLEMR heavy 2: EVQLVESGGGLVQPDRSLRLSCAASGFTFHDYAMHWVRQAPGKGLEWVSTISWNSGTIGYADSVKGRFTISRDNAKNSLYLQMNSLRAEDTALYYCAKDIQYGNYYYGMDVWGQGTTVTVSSASTKGPSVFPLAPSSKSTSGGTAALGCLVKDYFPEPVTVSWNSGALTSGVHTFPAVLQSSGLYSLSSVVTVPSSSLGTQTYICNVNHKPSNTKVDKRVEPKSCDKTHTCPPCPAPEFEGGPSVFLFPPKPKDTLMISRTPEVTCVVVAVSHEDPEVKFNWYVDGVEVHNAKTKPREEQYNSTYRVVSVLTVLHQDWLNGKEYKCKVSNKALPAPIEKTISKAKGQPREPQVYTLPPSREEMTKNQVSLTCLVKGFYPSDIAVEWESNGQPENNYKTTPPVLDSDGSFFLYSRLTVDKSRWQQGNVFSCSVMHEALHNHYTQKSLSLSPGK VL 2: EIVLTQSPATLSLSPGERATLSCRASQSVSSYLAWYQQKPGQAPRLLIYDASNRATGIPARFSGSGSGTDFTLTISSLEPEDFAVYYCQQRSNWPITFGQGTRLEIK
2 |  |  | ~0.1 | 118 | 54 | ~0.3 | ~0.06 | bsIgG1-huCLB-T3/4-FEALxCD20-11B8-FEAR (bispecific antibody, also called huCLB-T3/4x11B8; bsIgG1-huCLB-3/4-FEALxCD20-11B8-FEAR) heavy 1: EVQLVESGGGLVKPGGSLRLSCAASGFTFSSYGMFWVRQAPGKGLEWVATISRYSRYIYYPDSVKGRFTISRDNAKNSLYLQMNSLRAEDTAVYYCARRPLYGSSPDYWGQGTLVTVSSASTKGPSVFPLAPSSKSTSGGTAALGCLVKDYFPEPVTVSWNSGALTSGVHTFPAVLQSSGLYSLSSVVTVPSSSLGTQTYICNVNHKPSNTKVDKRVEPKSCDKTHTCPPCPAPEFEGGPSVFLFPPKPKDTLMISRTPEVTCVVVAVSHEDPEVKFNWYVDGVEVHNAKTKPREEQYNSTYRVVSVLTVLHQDWLNGKEYKCKVSNKALPAPIEKTISKAKGQPREPQVYTLPPSREEMTKNQVSLTCLVKGFYPSDIAVEWESNGQPENNYKTTPPVLDSDGSFLLYSKLTVDKSRWQQGNVFSCSVMHEALHNHYTQKSLSLSPGK VL 1: EIVLTQSPATLSLSPGERATLSCSASSSVTYVHWYQQKPGQAPRLLIYDTSKLASGIPARFSGSGSGTDFTLTISSLEPEDFAVYYCFQGSGYPLTFGSGTKLEMR heavy 2: EVQLVQSGGGLVHPGGSLRLSCTGSGFTFSYHAMHWVRQAPGKGLEWVSIIGTGGVTYYADSVKGRFTISRDNVKNSLYLQMNSLRAEDMAVYYCARDYYGAGSFYDGLYGMDVWGQGTTVTVSSASTKGPSVFPLAPSSKSTSGGTAALGCLVKDYFPEPVTVSWNSGALTSGVHTFPAVLQSSGLYSLSSVVTVPSSSLGTQTYICNVNHKPSNTKVDKRVEPKSCDKTHTCPPCPAPEFEGGPSVFLFPPKPKDTLMISRTPEVTCVVVAVSHEDPEVKFNWYVDGVEVHNAKTKPREEQYNSTYRVVSVLTVLHQDWLNGKEYKCKVSNKALPAPIEKTISKAKGQPREPQVYTLPPSREEMTKNQVSLTCLVKGFYPSDIAVEWESNGQPENNYKTTPPVLDSDGSFFLYSRLTVDKSRWQQGNVFSCSVMHEALHNHYTQKSLSLSPGK VL 2: EIVLTQSPATLSLSPGERATLSCRASQSVSSYLAWYQQKPGQAPRLLIYDASNRATGIPARFSGSGSGTDFTLTISSLEPEDFAVYYCQQRSDWPLTFGGGTKVEIK
